Measurements published in patent US20170129954A1 (PROTHENA BIOSCIENCES, published 2017).

Legend:
Assay in all cases: shotgun mutagenesis library, immunofluorescence on BHK cells, triplicate, background-subtracted and normalized to WT
[1] = molecular target: T1, human MCAM W377A mutant (shotgun mutagenesis library, on BHK cells) (human, UniProt P43121 24-646)
T1 chain: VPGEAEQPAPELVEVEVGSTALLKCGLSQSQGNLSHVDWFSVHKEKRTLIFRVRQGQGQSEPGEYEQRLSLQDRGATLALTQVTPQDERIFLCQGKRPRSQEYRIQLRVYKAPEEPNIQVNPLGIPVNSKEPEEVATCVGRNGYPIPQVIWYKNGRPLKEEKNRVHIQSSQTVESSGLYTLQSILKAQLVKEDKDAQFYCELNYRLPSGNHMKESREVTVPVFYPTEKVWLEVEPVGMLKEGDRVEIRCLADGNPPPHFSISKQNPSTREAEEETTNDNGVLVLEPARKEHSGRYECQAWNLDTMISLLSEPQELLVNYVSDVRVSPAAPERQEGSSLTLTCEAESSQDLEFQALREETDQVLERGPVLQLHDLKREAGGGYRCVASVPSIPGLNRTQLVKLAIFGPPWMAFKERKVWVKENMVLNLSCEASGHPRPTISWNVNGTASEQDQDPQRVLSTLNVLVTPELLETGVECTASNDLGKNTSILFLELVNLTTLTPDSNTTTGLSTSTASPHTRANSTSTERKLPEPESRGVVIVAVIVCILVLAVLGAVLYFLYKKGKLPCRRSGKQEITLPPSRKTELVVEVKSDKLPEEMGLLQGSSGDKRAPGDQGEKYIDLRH
Experimental: (§1) The mutation library was assayed for surface expression (mouse sera binding) and monoclonal antibody binding, in triplicate. Each raw data point was background-subtracted and normalized to the wild type MCAM reactivity values. The mean monoclonal antibody binding value for each clone is plotted as a function of its mean surface expression value (FIG. 1, gray diamonds). Thresholds of <30% monoclonal antibody reactivity and >50% mouse sera binding were applied to identify clones (FIG. 1, black diamonds) that were negative for monoclonal antibody binding but positive for surface expression.
(§2) Residues involved in antibody binding were identified as those that were negative for monoclonal antibody binding (<30% WT) but positive for surface expression (>50% WT) (Table 4). The mean reactivity (and standard deviation) were determined for each critical residue.

[2] = molecular target: T2, human MCAM Y318A mutant (shotgun mutagenesis library, on BHK cells) (human, UniProt P43121 24-646)
T2 chain: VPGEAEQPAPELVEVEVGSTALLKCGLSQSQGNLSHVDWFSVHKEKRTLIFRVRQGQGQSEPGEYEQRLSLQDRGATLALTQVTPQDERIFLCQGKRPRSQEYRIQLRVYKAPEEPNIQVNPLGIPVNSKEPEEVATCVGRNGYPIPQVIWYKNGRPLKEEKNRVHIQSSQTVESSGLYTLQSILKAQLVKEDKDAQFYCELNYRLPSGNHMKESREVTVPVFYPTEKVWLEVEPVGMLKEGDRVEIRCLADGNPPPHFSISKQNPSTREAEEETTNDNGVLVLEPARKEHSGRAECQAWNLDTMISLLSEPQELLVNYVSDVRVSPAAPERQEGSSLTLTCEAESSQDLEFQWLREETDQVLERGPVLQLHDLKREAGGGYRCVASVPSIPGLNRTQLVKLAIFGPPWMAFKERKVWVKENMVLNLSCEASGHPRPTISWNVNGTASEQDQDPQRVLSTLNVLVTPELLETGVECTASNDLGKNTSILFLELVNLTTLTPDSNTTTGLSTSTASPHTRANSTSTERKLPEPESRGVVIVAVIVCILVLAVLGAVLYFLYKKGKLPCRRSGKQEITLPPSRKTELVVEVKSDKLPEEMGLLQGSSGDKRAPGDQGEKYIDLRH
Experimental: as §1, §2

[3] = molecular target: T3, human MCAM C320A mutant (shotgun mutagenesis library, on BHK cells) (human, UniProt P43121 24-646)
T3 chain: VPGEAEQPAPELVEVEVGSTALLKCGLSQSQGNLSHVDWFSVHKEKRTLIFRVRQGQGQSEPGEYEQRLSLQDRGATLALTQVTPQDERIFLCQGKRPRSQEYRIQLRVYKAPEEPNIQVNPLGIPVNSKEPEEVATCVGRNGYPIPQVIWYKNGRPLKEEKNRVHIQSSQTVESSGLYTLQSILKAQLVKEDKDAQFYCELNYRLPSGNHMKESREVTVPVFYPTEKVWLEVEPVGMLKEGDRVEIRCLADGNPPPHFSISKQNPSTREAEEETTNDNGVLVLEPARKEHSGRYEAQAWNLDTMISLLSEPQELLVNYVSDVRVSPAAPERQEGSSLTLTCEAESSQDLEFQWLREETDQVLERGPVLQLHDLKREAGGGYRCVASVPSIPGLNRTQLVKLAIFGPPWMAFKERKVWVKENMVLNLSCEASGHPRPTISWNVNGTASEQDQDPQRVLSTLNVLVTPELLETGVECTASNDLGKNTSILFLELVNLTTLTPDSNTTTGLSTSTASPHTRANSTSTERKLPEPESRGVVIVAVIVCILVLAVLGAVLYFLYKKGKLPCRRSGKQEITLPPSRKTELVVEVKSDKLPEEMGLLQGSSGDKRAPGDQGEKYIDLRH
Experimental: as §1, §2

[4] = molecular target: T4, human MCAM C272A mutant (shotgun mutagenesis library, on BHK cells) (human, UniProt P43121 24-646)
T4 chain: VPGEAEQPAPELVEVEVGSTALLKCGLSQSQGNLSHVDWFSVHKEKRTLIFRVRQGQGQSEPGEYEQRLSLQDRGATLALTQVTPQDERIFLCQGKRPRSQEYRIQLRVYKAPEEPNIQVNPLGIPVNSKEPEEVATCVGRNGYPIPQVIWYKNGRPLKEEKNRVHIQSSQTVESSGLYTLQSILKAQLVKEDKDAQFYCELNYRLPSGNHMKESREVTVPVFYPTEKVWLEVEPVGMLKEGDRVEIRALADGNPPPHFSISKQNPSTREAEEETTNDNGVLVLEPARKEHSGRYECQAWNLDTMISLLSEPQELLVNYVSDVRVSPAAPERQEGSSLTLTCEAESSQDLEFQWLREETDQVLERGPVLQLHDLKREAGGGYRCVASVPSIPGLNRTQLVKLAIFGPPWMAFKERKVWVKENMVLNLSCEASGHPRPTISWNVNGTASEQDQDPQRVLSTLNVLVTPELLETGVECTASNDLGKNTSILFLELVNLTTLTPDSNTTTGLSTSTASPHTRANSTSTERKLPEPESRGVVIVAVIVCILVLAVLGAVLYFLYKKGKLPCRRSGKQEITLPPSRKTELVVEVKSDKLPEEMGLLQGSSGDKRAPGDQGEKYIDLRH
Experimental: as §1, §2

B1: mouse anti-human MCAM monoclonal antibody clone 1749.1.3 (antibody, V domains shown)
VH: DVKLVESGGDLVKPGGSLKLSCAASGFTFSSYIMSWVRQTPEKRLEWVATISSGGSSTYYPDSVKGRFTISRDNAKNTLYLQMSSLKSEDTAMYYCTRDDDYDVKVFAYWGQGTLVTVSA
VL: DIVMSQSPSSLAVSAGEKVTMNCKSSRSLLNSRIRKNYLAWYQQKPGQSPKLLIYWASTRESGVPDRFTGSGSGTDFTLTISSVQAEDLAVYYCKQSYNLLTFGAGTKLELK
notes: Mouse hybridoma monoclonal antibody; also called m1749
- mean reactivity (% of wild type MCAM), standard deviation in brackets [1]: 13.7 % of WT
- mean reactivity (% of wild type MCAM), standard deviation in brackets [2]: 7.1 % of WT
- mean reactivity (% of wild type MCAM), standard deviation in brackets [3]: 9.3 % of WT
- mean reactivity (% of wild type MCAM), standard deviation in brackets [4]: 7.6 % of WT
